The target of the assay is T1, human TEX10 (43-929), His6-MBP fusion (human, UniProt Q9NXF1 43-929).
T1 sequence (looked up): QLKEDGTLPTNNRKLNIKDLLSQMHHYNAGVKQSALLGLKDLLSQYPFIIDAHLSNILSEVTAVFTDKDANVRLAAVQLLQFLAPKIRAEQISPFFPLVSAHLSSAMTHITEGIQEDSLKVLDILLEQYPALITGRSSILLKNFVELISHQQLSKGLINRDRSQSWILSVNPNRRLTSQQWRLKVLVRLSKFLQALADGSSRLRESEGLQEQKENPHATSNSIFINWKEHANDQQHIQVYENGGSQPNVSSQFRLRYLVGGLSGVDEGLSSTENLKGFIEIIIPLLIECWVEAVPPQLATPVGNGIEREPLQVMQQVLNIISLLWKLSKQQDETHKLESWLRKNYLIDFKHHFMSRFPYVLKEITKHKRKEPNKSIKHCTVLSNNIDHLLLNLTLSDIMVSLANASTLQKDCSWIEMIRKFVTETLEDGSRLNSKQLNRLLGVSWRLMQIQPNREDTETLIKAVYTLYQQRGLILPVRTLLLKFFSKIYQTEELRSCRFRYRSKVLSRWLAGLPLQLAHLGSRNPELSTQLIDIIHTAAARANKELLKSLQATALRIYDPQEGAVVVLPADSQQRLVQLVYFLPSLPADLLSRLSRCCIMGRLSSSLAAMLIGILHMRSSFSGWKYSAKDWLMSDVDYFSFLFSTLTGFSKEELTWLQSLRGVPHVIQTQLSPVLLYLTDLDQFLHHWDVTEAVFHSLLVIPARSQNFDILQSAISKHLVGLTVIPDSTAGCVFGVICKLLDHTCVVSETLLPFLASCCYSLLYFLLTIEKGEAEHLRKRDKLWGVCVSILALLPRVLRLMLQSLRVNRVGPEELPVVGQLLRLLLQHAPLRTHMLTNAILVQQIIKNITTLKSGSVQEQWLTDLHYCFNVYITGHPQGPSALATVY
The experiment in a line: cryo-EM structure.

B1: human PELP1 (residues 1-642, Rix1 domain) (domain or fragment)
chain: not shown
For B1, the binding result is reported as “binds”.

The values are drawn from article PMC11976907 (Nature Communications, 2025).
